In article doi:10.1101/2024.12.18.629156 one finds Kd data, which are given here for four substances.

The target in series [1] is ecHOP1-HORMA (2xStrepII-ecHOP1-HORMA, residues 1-274) (Ectocarpus). The series is described as follows: ITC. (In general: Isothermal titration calorimetry measures the heat released or taken up as one component is titrated into another.)
The subject of series [2] is His6-SUMO-ecHOP1-wHTH WT (Ectocarpus (E. siliculosus; model brown alga)). The series is described as follows: EMSA. A general note: In EMSA bound probe runs differently from free probe, usually more slowly.

Usually Kd stands for the constant that tells how readily two partners part at equilibrium. In series [1], “MBP-ecHOP1 CM1-1 (closure motif 1 of ecHOP1 isoform 1, residues 567-600) (domain or fragment)” registered a Kd of 7.2 µM.
On to “MBP-ecHOP1 CM2-1 (closure motif 2 of ecHOP1 isoform 1, residues 665-694) (domain or fragment)”, for which, in series [1], the Kd worked out at 10.6 µM.
In the case of “MBP-ecRED1 CM1 (putative closure motif 1 of ecRED1) (domain or fragment)”, the Kd in series [1] worked out at 60.3 µM.
Take 167 bp Widom DNA: the Kd in series [2] was found to be 0.25 µM.
